Measured values published in US20250188184A1 (published 2025).
Numbering of substitutions follows the chain as printed.

B1: CD3.218 (AC3649) (bispecific antibody, V domains shown)
VH: EVQLVESGGGIVQPGGSLRLSCAASGFTFSTYAMNWVRQAPGKGLEWVGRIRSKYNNYATTYADSVKGRFTISRDDSKNTVYLQMNSLKTEDTAVYYCVRHENFGNSYVSWFAHWGQGTLVTVSS
VL: ELVVTQEPSLTVSPGGTVTLTCRSSNGAVTSSNYANWVQQKPGQAPRGLIGGTNKRAPGTPARFSGSLLGGKAALTLSGVQPEDEAVYYCALWYPNLWVFGGGTKLTVL
notes: paTCE with PSMA.262 VHH; crude lysate
B2: CD3.251 (AC3682) (bispecific antibody, V domains shown)
VH: B1 VH with S30N, Y55R, G68D
VL: B1 VL
notes: as for B1
B3: uTCE from AC3445 (PSMA.119-CD3.23) (bispecific antibody)
chain: GTSESATPESQVQLVESGGGVVQPGRSLRLSCAASGRTFGIYVMGWVRQAPGKEREFVAAISWSGSNRKVSDSVKGRFTISRDNSKNTLYLQMNSLRAEDTAVYYCAASNRLYGRTWYDFNESDYWGQGTQVTVSSGGGGSGGGSELVVTQEPSLTVSPGGTVTLTCRSSNGAVTSSNYANWVQQKPGQAPRGLIGGTNKRAPGTPARFSGSLLGGKAALTLSGVQPEDEAVYYCALWYPNLWVFGGGTKLTVLSESATPESGPGTSPGATPESGPGTSESATPEVQLLESGGGIVQPGGSLKLSCAASGFTFNTYAMNWVRQAPGKGLEWVARIRSKYNNYATYYADSVKDRFTISRDDSKNTVYLQMNNLKTEDTAVYYCVRHENFGNSYVSWFAHWGQGTLVTVSSGTATPESGPG
notes: release-segment residues left at the ends not specified
B4: uTCE from AC3928 (PSMA.350-CD3.23) (bispecific antibody)
chain: B3 chain with M44W, V47F, A59G, I61M, R111K, L112E
notes: release-segment residues left at the ends not specified; also called AMX500-P6 uTCE
B5: uTCE from AC3934 (PSMA.262-CD3.228) (bispecific antibody)
chain: GTSESATPESQVQLVESGGGVVQPGRSLRLSCAASGRTFGIYVWGWVRQAPGKEREFVGAISWSGSNRKVSDSVKGRFTISRDNSKNTLYLQMNSLRAEDTAVYYCAASNKLYGRTWYDFNESDYWGQGTQVTVSSGGGGSGGGSELVVTQEPSLTVSPGGTVTLTCRSSNGAVTSSNYANWVQQKPGQAPRGLIGGTNKRAPGTPARFSGSLLGGKAALTLSGVQPEDEAVYYCALWYPNLWVFGGGTKLTVLSESATPESGPGTSPGATPESGPGTSESATPEVQLVESGGGIVQPGGSLRLSCAASGFTFSTYAMNWVRQAPGKGLEWVGRIRTKRNNYATYYADSVKGRFTISRDDSKNTVYLQMNSLKTEDTAVYYCVRHENFGNSYVSWFAHWGQGTLVTVSSGTATPESGPG
notes: release-segment residues left at the ends not specified; also called AMX500-P7 uTCE

What was measured:
human CD3 epsilon [1] = molecular target: T1, human CD3 epsilon (human, UniProt P07766 23-126, limits assumed); test: Octet, crude lysate
T1 construct: also called huCD3e
Protocol: Pool 2 consisted of paTCE molecules each containing PSMA.262 and one of 64 CD3.23 mutation combination variants. Stability and affinity of the individually expressed molecules in the form of crude lysate was evaluated by Octet. […] The binding of these anti-CD3 molecules (CD3.227, CD3.228, CD3.229 and CD3.230) to human and cynomolgus CD3 was measured by Octet and the Tₘ was measured by Differential Scanning Fluorimetry. All variants were paired with PSMA.262 except for CD3.23 which was paired with PSMA.5.

human PSMA [2] = molecular target: T2, human PSMA (human, UniProt Q04609 44-750, limits assumed); test: Octet, uTCE
T2 construct: other Octet runs used human PSMA-Fc; also called huPSMA; prostate-specific membrane antigen

cynomolgus monkey PSMA [3] = molecular target: T3, cynomolgus monkey PSMA (cynomolgus monkey, UniProt A0A2K5VNZ0 44-750); test: Octet, uTCE
T3 construct: also called cyPSMA; cyno PSMA

cynomolgus CD3 epsilon [4] = molecular target: T4, cynomolgus CD3 epsilon (cynomolgus monkey, UniProt Q95LI5 22-117, limits assumed); test: Octet, uTCE
T4 construct: also called cyCD3e
T4 sequence (looked up): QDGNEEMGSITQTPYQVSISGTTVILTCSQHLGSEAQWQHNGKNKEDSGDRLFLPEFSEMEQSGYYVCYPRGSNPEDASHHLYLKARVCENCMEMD

human CD3 epsilon [5] = molecular target: T1, human CD3 epsilon; test: Octet, uTCE
human PSMA [6] = molecular target: T2, human PSMA; test: Biacore, uTCE
cynomolgus monkey PSMA [7] = molecular target: T3, cynomolgus monkey PSMA; test: Biacore, uTCE
cynomolgus CD3 epsilon [8] = molecular target: T4, cynomolgus CD3 epsilon; test: Biacore, uTCE
human CD3 epsilon [9] = molecular target: T1, human CD3 epsilon; test: Biacore, uTCE

T1 sequence (P07766 23-126 limits assumed): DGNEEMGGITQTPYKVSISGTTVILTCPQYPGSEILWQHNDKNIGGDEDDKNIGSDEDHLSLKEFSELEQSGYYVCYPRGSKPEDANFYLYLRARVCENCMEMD
T2 sequence (Q04609 44-750 limits assumed): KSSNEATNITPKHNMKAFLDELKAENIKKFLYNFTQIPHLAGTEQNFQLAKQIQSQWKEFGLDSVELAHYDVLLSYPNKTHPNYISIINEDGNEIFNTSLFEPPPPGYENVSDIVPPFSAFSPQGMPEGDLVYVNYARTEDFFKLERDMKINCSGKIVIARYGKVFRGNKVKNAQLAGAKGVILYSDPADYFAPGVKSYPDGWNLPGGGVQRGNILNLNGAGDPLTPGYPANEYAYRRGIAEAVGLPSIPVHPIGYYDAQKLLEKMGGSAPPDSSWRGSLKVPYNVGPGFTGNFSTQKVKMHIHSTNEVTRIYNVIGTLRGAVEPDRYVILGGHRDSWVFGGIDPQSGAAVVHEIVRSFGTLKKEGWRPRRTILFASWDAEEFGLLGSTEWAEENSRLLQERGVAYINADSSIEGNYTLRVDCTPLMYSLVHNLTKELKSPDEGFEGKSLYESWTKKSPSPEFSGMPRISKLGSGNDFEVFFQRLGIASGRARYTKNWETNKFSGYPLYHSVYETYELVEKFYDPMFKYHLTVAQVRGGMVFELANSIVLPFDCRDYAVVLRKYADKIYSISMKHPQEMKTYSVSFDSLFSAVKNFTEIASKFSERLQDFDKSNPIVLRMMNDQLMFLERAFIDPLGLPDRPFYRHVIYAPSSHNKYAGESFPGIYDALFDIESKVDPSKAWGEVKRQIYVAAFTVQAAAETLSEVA

| Binder | Kd (human CD3 epsilon [1]) [nM] | Kd (human PSMA [2]) [nM] | Kd (cynomolgus monkey PSMA [3]) [nM] | Kd (cynomolgus CD3 epsilon [4]) [nM] | Kd (human CD3 epsilon [5]) [nM] | Kd (human PSMA [6]) [nM] | Kd (cynomolgus monkey PSMA [7]) [nM] | Kd (cynomolgus CD3 epsilon [8]) [nM] | Kd (human CD3 epsilon [9]) [nM] |
| --- | --- | --- | --- | --- | --- | --- | --- | --- | --- |
| B1 | 4.4 | – | – | – | – | – | – | – | – |
| B2 | 32.9 | – | – | – | – | – | – | – | – |
| B3 | – | 6.2 | 47.5 | 40 | 34.8 | – | – | – | – |
| B4 | – | 13.2 | 198 | 44.9 | 43 | 19 | 354 | 26.6 | 27.3 |
| B5 | – | 1.6 | 13.1 | 33.7 | 26.6 | 0.5 | 13 | 10.4 | 9.83 |
